Test results reported in paper PMC6071530.

Target: Recombinant human S100A4 (human) (UniProt P26447)
Assay: SPR; BIAcore 2000; 2000 RU of recombinant human S100A4 immobilized covalently on a CM4 chip; soluble AR or NRG as analyte

Recombinant human S100A4 (human), sequence (P26447 whole entry): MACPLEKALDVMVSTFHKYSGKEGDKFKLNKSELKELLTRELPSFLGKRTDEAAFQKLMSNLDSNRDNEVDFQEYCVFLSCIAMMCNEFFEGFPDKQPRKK

Substance “Neuregulin 1 (from UniProt Q02297 20-241) (ligand)” has a Kd of 19.9 nM.
